From the Human Domainome abundance scans (Beltran et al. 2025)
± gives the uncertainty stated by the source.

B1: Transcriptional regulator ERG, residues 117 to 197; numbered along this chain, P11308 (parent)
chain: NMTTNERRVIVPADPTLWSTDHVRQWLEWAVKEYGLPDVNILLFQNIDGKELCKMTKDDFQRLTPSYNADILLSHLHYLRE

Variants of: B1
Test: abundance fitness (aPCA) (normalised: wild type 0, dead -1); higher = more abundant; growth selection in yeast, the domain comes from the species named
Conditions: Homo sapiens

Abundance fitness: each site, then its substitutions
D14: V -0.656 ± 0.094, F -0.444 ± 0.12, K -0.872 ± 0.19, G -0.706 ± 0.073, W -0.809 ± 0.15, P -0.898 ± 0.17, I -0.726 ± 0.2, A -0.716 ± 0.096, T -0.417 ± 0.078, R -0.783 ± 0.092, M -0.537 ± 0.11, N -0.083 ± 0.07, Y -0.723 ± 0.16, C -0.085 ± 0.065, H -0.146 ± 0.093, E -0.346 ± 0.089, L -0.771 ± 0.13
A13: F -0.074 ± 0.072, P 0.116 ± 0.062, Y -0.075 ± 0.087, H 0.045 ± 0.12, L -0.046 ± 0.045, I 0.056 ± 0.068, C 0.009 ± 0.067, M -0.033 ± 0.074, T 0.108 ± 0.065, W -0.122 ± 0.051, N 0.06 ± 0.088, R 0.043 ± 0.035, V -0.01 ± 0.044, K -0.05 ± 0.062, G 0.061 ± 0.037, D 0.235 ± 0.063, Q 0.11 ± 0.06
V9: E 0.207 ± 0.075, Q 0.243 ± 0.055, M 0.132 ± 0.049, L 0.096 ± 0.035, A 0.12 ± 0.045, K 0.16 ± 0.06, S 0.137 ± 0.036, Y -0.062 ± 0.044, C 0.046 ± 0.063, N 0.099 ± 0.044, H 0.034 ± 0.048, P 0.292 ± 0.051, F 0.075 ± 0.045, T 0.054 ± 0.043, W 0.038 ± 0.07, I -0.034 ± 0.044, R 0.113 ± 0.043, D 0.269 ± 0.052
P15: N -0.967 ± 0.19, G -0.803 ± 0.088, R -0.835 ± 0.09, T -0.632 ± 0.085, M -0.638 ± 0.13, D -0.94 ± 0.17, V -0.267 ± 0.047, S -0.611 ± 0.076, H -0.86 ± 0.19, Q -0.495 ± 0.092, I -0.171 ± 0.072, E -0.86 ± 0.15, K -0.915 ± 0.17, A -0.269 ± 0.053, L -0.41 ± 0.056, F -0.273 ± 0.085, C -0.323 ± 0.069
R7: D 0.037 ± 0.057, V -0.045 ± 0.038, W -0.053 ± 0.045, N -0.09 ± 0.074, L 0.087 ± 0.039, T 0.021 ± 0.048, E 0.06 ± 0.045, K 0.018 ± 0.049, Q 0.016 ± 0.056, Y -0.127 ± 0.076, P 0.049 ± 0.056, C -0.12 ± 0.068, H -0.115 ± 0.078, S -0.047 ± 0.045, I -0.208 ± 0.074, A 0 ± 0.037, M 0.044 ± 0.053, G -0.003 ± 0.032
I10: E 0.21 ± 0.043, V 0.03 ± 0.04, P 0.214 ± 0.06, F -0.06 ± 0.077, A 0.124 ± 0.039, M 0.038 ± 0.053, G 0.227 ± 0.03, H 0.138 ± 0.085, R 0.093 ± 0.035, K 0.109 ± 0.055, Y -0.013 ± 0.1, W -0.089 ± 0.049, Q 0.129 ± 0.056, L -0.058 ± 0.047, S 0.116 ± 0.046, T 0.264 ± 0.062, D 0.328 ± 0.066, C -0.026 ± 0.066
R8: I -0.323 ± 0.077, P -0.137 ± 0.066, C -0.112 ± 0.08, A -0.084 ± 0.056, V -0.478 ± 0.083, S -0.117 ± 0.052, D 0.116 ± 0.067, M -0.263 ± 0.083, Y -0.496 ± 0.11, T -0.022 ± 0.053, L -0.29 ± 0.054, N 0.028 ± 0.064, H -0.098 ± 0.073, G -0.207 ± 0.067, Q -0.011 ± 0.063, F -0.076 ± 0.068, W -0.881 ± 0.19, E 0.09 ± 0.068, K 0.104 ± 0.064
E6: R -0.088 ± 0.036, V -0.142 ± 0.042, Y -0.089 ± 0.091, P 0.033 ± 0.06, T -0.017 ± 0.055, W 0.037 ± 0.041, Q 0.002 ± 0.067, S -0.107 ± 0.047
V11: F 0.078 ± 0.076, D 0.013 ± 0.068, Y 0.113 ± 0.072, N 0.063 ± 0.073, C 0.106 ± 0.064, H 0.321 ± 0.089, G 0.05 ± 0.031, M 0.087 ± 0.053, L 0.067 ± 0.037, E 0.056 ± 0.048, R 0.209 ± 0.033, S 0.104 ± 0.044, I 0.102 ± 0.051, W 0.2 ± 0.04, A 0.102 ± 0.04, Q -0.017 ± 0.054, K 0.029 ± 0.048
P12: V -0.631 ± 0.067, G -0.136 ± 0.033, F -0.486 ± 0.099, Y -0.45 ± 0.12, T -0.343 ± 0.077, K -0.215 ± 0.058, M -0.65 ± 0.1, E -0.019 ± 0.045, S -0.209 ± 0.049, A -0.176 ± 0.047, D -0.042 ± 0.064, R -0.248 ± 0.038, I -1.37 ± 0.5, C -0.644 ± 0.12, L -0.505 ± 0.058, N -0.027 ± 0.068, H -0.452 ± 0.12, W -0.15 ± 0.044
